The values below come from US20250345446A1 (Draupnir Bio ApS, priority 2022, published 2025).

Experiment [1] concerns HEK293 cells expressing full length sortilin receptor. The experiment in a line: Cellular uptake of NA650 in HEK293/sortilin cells. It is filed as cell-based. The note with it: for IC50: SEQ ID NO.: 147 (300 nM) and NA650 (100 nM), 3 h incubation, competitor titrated, read-out: IC50 of inhibition of degrader induced internalization of NA650; for AUC score, target internalization: Table 6, NA650 (100 nM), 3 h, biotin warhead compounds. As for the experimental part: Cellular uptake of NA650 was investigated in HEK293 cells expressing full length sortilin receptor (Petersen et. al.). Cells were seeded in poly-L-lysine coated 96-well plates (Perkin Elmer) (40K/well) in 50 μL culture medium (DMEM (Lonza)+10% FBS (SigmaAldrich)+1% penicillin-streptomycin (SigmaAldrich)+1% GlutaMAX (Gibco)+100 μg/mL Zeocin (Invitrogen)) and incubated overnight in cell incubator (37° C., humidified, 5% CO2).
Culture medium was replaced with assay medium (DMEM (Lonza)+10% fetal bovine serum (SigmaAldrich)+1% penicillin-streptomycin (SigmaAldrich)+1% GlutaMAX (Gibco)) containing NA650 (Invitrogen) (100 nM) (Thermo Fischer) and peptidic bifunctional compounds (9.8 nM to 10 μM). Cells were incubated for 3 h in cell incubator before they were washed in dPBS (Bionordika). The DyLight650 signal in the cell layer was detected using a fluorescence plate reader (BMG Labtech Clariostar).
Cellular uptake of NA650 was investigated in HEK293 cells expressing full length sortilin receptor using a methodology analogous to example 3.

For experiment [2], the target named is T1, soluble ectodomain of sortilin-6his (Homo sapiens, UniProt Q99523, V650M).
T1 construct: the soluble ectodomain of sortilin-6his is measured by microscale thermophoresis (MST)
Nature of the experiment: MST binding to soluble ectodomain of sortilin-6his.

The test system of experiment [3] is HEK293 cells expressing full length sortilin receptor. The experiment in a line: Cellular uptake of AlexaFluor488-anti-DNP antibody. It counts as cell-based. The note with it: for AUC score, target internalization: Table 7, AlexaFluor488-anti-DNP antibody (100 nM), 3 h, DNP warhead compounds. From the text: In this example, the small molecule degraders consist of a sortilin binder linked to warhead DNP to target anti-DNP antibodies (BF001 to BF016)
Cellular uptake of AlexaFluor488-anti-DNP antibody (Thermo Fisher) was investigated in HEK293 cells expressing full length sortilin receptor in a methodology analogous to example 3.

Experiment [4] addresses T2, Sortilin-6His (Homo sapiens (Human), UniProt Q99523 78-755).
T2 construct: In MST it was labelled non-covalently with RED-tris-NTA; also called soluble ectodomain of sortilin-6his; fluorescent sortilin-6his
The experiment in a line: MST on labelled sortilin-6his ectodomain; KD score: ++ <100 nM, + 100-2000 nM.

The target in experiment [5] is T2, Sortilin-6His. The experiment in a line: MST on labelled sortilin-6his ectodomain; KD score: +++ <25 nM, ++ 25-250 nM, + 250-2500 nM, 0 >2500 nM.
The mark [6] stands for this setting: Table 4, small molecule bifunctional compounds, MST, read-out: KD score, binding to sortilin (Kd).

Like-named read-outs stand apart in the source and are kept apart here. No end group written: not given here. *: point of attachment. Biotin = O=C1N[C@H]2[C@H](CS[C@H]2CCCCC(=O)*)N1

T1 sequence (Q99523 with tags, fused parts or gaps V650M): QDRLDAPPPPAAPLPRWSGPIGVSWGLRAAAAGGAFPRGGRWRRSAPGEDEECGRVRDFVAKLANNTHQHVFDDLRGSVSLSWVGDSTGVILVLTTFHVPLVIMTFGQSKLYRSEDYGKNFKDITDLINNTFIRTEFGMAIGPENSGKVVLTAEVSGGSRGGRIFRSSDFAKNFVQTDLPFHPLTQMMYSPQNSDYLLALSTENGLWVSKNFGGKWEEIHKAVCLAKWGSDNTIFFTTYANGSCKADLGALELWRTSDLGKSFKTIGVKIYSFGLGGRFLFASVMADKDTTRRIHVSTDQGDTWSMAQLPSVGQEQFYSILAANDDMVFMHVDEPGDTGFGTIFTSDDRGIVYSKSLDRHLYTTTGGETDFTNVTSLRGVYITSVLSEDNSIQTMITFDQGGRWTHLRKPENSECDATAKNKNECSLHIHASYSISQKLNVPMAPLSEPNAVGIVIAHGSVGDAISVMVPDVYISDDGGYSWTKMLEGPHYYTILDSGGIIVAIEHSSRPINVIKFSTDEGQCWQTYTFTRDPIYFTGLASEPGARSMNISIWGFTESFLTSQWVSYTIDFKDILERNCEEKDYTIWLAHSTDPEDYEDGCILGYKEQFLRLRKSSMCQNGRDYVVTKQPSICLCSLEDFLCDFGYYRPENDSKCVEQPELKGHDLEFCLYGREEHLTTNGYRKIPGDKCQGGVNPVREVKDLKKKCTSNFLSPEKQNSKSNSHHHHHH
T2 sequence (Q99523 78-755 V650M limits assumed): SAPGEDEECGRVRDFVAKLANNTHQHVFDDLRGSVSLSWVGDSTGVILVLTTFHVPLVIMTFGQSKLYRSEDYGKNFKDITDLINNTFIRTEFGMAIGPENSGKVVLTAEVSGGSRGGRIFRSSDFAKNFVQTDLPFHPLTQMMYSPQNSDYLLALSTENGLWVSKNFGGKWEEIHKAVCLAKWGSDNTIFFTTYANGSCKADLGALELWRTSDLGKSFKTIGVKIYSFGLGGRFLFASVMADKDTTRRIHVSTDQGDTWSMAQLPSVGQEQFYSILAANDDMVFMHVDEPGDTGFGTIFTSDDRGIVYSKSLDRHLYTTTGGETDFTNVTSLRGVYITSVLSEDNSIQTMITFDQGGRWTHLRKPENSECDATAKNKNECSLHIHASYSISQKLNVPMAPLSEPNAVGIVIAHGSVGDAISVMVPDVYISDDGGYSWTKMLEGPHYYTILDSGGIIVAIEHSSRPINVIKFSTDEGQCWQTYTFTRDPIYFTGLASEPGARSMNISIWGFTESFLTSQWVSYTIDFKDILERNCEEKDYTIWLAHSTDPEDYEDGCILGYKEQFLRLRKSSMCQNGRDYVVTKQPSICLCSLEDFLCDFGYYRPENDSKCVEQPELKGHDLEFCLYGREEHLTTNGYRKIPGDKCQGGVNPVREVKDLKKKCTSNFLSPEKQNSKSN

Take `Cc1cccc(NC(=O)c2ccc(C(F)(F)F)cc2C(=O)O)n1` [AF38469, reference compound]: the half-maximal inhibitory concentration (IC50) (commonly the midpoint of a concentration-inhibition curve) in experiment [1] was 589 nM. `CC(C)(C)CC[C@H](NC(=O)c1ccc(Oc2cccc(OCCOCCOCCOCCOCCOCCNc3ccc([N+](=O)[O-])cc3[N+](=O)[O-])c2)nc1)C(=O)O` [BF004, (2S)-2-[[6-[3-[2-[2-[2-[2-[2-[2-(2,4-dinitroanilino)ethoxy]ethoxy]ethoxy]ethoxy]ethoxy]ethoxy]phenoxy]pyridine-3-carbonyl]amino]-5,5-dimethyl-hexanoic acid]: the Kd (in general, the concentration at which binding is half-saturated) in experiment [2] lay in the range of 1 to 10 nM. Also, the “AUC score, target internalization” value in experiment [3] is on record as “+ (AUC < 10.000)”.

For the molecule `CC(C)(C)CC[C@H](NC(=O)c1ccc(Oc2cccc(C(=O)NCCOCCOCCOCCOCCOCCNc3ccc([N+](=O)[O-])cc3[N+](=O)[O-])c2)nc1)C(=O)O` [BF011, (2S)-2-[[6-[3-[2-[2-[2-[2-[2-[2-(2,4-dinitroanilino)ethoxy]ethoxy]ethoxy]ethoxy]ethoxy]ethylcarbamoyl]phenoxy]pyridine-3-carbonyl]amino]-5,5-dimethyl-hexanoic acid], the “cell associated FI signal, response to concentration series (in words)” value in experiment [3] (3 h incubation, 1.9 nM to 2 μM, AlexaFluor488-anti-DNP antibody 100 nM) is on record as “bell-shaped response”. In addition, the “AUC score, target internalization” value in experiment [3] is listed as “+ (AUC < 10.000)”. As to `CC(C)(C)CC[C@H](NC(=O)c1ccc(Oc2cccc(C(=O)NCCOCCOCCOCCOCCOCCOCCOCCOCCNC(=O)CCCC[C@@H]3SC[C@@H]4NC(=O)N[C@@H]43)c2)nc1)C(=O)O` [BF018, (2S)-2-[[6-[3-[2-[2-[2-[2-[2-[2-[2-[2-[2-[5-[(3aS,4S,6aR)-2-oxo-1,3,3a,4,6,6a-hexahydrothieno[3,4-d]imidazol-4-yl]pentanoylamino]ethoxy]ethoxy]ethoxy]ethoxy]ethoxy]ethoxy]ethoxy]ethoxy]ethylcarbamoyl]phenoxy]pyridine-3-carbonyl]amino]-5,5-dimethyl-hexanoic acid], the “AUC score, target internalization” value in experiment [1] is recorded as “++ (AUC > 100)”. In experiment [2] (setting [6]), the Kd was 1 to 10 nM.

Take `CC(C)(C)CC[C@H](NC(=O)c1ccc(Oc2cccc(OCCOCCOCCNC(=O)CCCC[C@@H]3SC[C@@H]4NC(=O)N[C@@H]43)c2)nc1)C(=O)O` [BF022, (S)-5,5-dimethyl-2-(6-(3-(2-(2-(2-(5-((3aS,4S,6aR)-2-oxohexahydro-1H-thieno[3,4-d]imidazol-4-yl)pentanamido)ethoxy)ethoxy)ethoxy)phenoxy)nicotinamido) hexanoic acid]: the “AUC score, target internalization” value in experiment [1] is recorded as “+ (AUC < 100)”. For the same molecule, the Kd in experiment [2] (setting [6]) was 10 to 250 nM. Regarding `CC(C)(C)CC[C@H](NC(=O)c1ccc(Oc2cccc3cc(C(=O)NCCCNC(=O)CCCC[C@@H]4SC[C@@H]5NC(=O)N[C@@H]54)ccc23)nc1)C(=O)O` [BF024], in experiment [1], the “AUC score, target internalization” value was “+ (AUC < 100)”. Also, the Kd in experiment [2] (setting [6]) fell in the range of 10 to 250 nM. For `CC(C)(C)CC[C@H](NC(=O)c1ccc(Oc2cccc3c(C(=O)NCCCNC(=O)CCOCCOCCOCCOCCOCCNC(=O)CCCC[C@@H]4SC[C@@H]5NC(=O)N[C@@H]54)cccc23)nc1)C(=O)O` [BF028, (2S)-2-[[6-[[5-[3-[3-[2-[2-[2-[2-[2-[5-[(3aS,4S,6aR)-2-oxo-1,3,3a,4,6,6a-hexahydrothieno[3,4-d]imidazol-4-yl]pentanoylamino]ethoxy]ethoxy]ethoxy]ethoxy]ethoxy]propanoylamino]propylcarbamoyl]-1-naphthyl]oxy]pyridine-3-carbonyl]amino]-5,5-dimethyl-hexanoic acid] the same measures were “++ (AUC > 100)” and 10 to 250 nM. As for `O=C(O)CCCC[C@@H]1SC[C@@H]2NC(=O)N[C@@H]21` [biotin, reference compound], the half-maximal inhibitory concentration (IC50) in experiment [1] (Homo sapiens, HEK293) came out at 56 nM.

B1: Biotin-GGRQLL-OH (peptide)
peptide: Biotin-GGRQLL-OH
SMILES: CC(C)C[C@H](NC(=O)[C@H](CC(C)C)NC(=O)[C@H](CCC(N)=O)NC(=O)[C@H](CCCNC(=N)N)NC(=O)CNC(=O)CNC(=O)CCCC[C@@H]1SC[C@@H]2NC(=O)N[C@@H]21)C(=O)O
On to B1, for which, in the experiment with Sortilin-6His [4], the KD (commonly a measure of binding affinity in units of concentration) was < 100 nM.

B2: Biotin-GGSGGFQLL-OH (peptide)
peptide: Biotin-GGSGGFQLL-OH
SMILES: CC(C)C[C@H](NC(=O)[C@H](CC(C)C)NC(=O)[C@H](CCC(N)=O)NC(=O)[C@H](Cc1ccccc1)NC(=O)CNC(=O)CNC(=O)[C@H](CO)NC(=O)CNC(=O)CNC(=O)CCCC[C@@H]1SC[C@@H]2NC(=O)N[C@@H]21)C(=O)O
Take B2: the dissociation constant (KD) with Sortilin-6His [4] is < 100 nM.

B3: Biotin-GGSRQLL-OH (peptide)
peptide: Biotin-GGSRQLL-OH
SMILES: CC(C)C[C@H](NC(=O)[C@H](CC(C)C)NC(=O)[C@H](CCC(N)=O)NC(=O)[C@H](CCCNC(=N)N)NC(=O)[C@H](CO)NC(=O)CNC(=O)CNC(=O)CCCC[C@@H]1SC[C@@H]2NC(=O)N[C@@H]21)C(=O)O
Regarding B3, the dissociation constant KD with Sortilin-6His [4] was in the range of 100 to 2000 nM.

B4: Biotin-RQLL-OH (peptide)
peptide: Biotin-RQLL-OH
SMILES: CC(C)C[C@H](NC(=O)[C@H](CC(C)C)NC(=O)[C@H](CCC(N)=O)NC(=O)[C@H](CCCNC(=N)N)NC(=O)CCCC[C@@H]1SC[C@@H]2NC(=O)N[C@@H]21)C(=O)O
Regarding B4, the dissociation constant (KD) with Sortilin-6His [4] is < 100 nM. Turning to H-RYYL-OH [H-RYYL-OH], in the experiment with Sortilin-6His [5], the KD lay in the range of 25 to 250 nM. On the same count and under the same terms, with IQLL the figure was 250 to 2500 nM; with LQLL, 250 to 2500 nM. The same measure, in the same setting: under PYILKRQLYENKPRRPYIL stands < 25 nM; under APLRDPAPRQLL, 25 to 250 nM; under LYENKPRRPYIL, 25 to 250 nM.

B5: Biotin-GGSGGGGFQLL-OH (peptide)
peptide: Biotin-GGSGGGGFQLL-OH
SMILES: CC(C)C[C@H](NC(=O)[C@H](CC(C)C)NC(=O)[C@H](CCC(N)=O)NC(=O)[C@H](Cc1ccccc1)NC(=O)CNC(=O)CNC(=O)CNC(=O)CNC(=O)[C@H](CO)NC(=O)CNC(=O)CNC(=O)CCCC[C@@H]1SC[C@@H]2NC(=O)N[C@@H]21)C(=O)O
Take B5: the KD with Sortilin-6His [4] was < 100 nM.

B6: Biotin-GGSGGGGRQLL-OH (peptide)
peptide: Biotin-GGSGGGGRQLL-OH
SMILES: CC(C)C[C@H](NC(=O)[C@H](CC(C)C)NC(=O)[C@H](CCC(N)=O)NC(=O)[C@H](CCCNC(=N)N)NC(=O)CNC(=O)CNC(=O)CNC(=O)CNC(=O)[C@H](CO)NC(=O)CNC(=O)CNC(=O)CCCC[C@@H]1SC[C@@H]2NC(=O)N[C@@H]21)C(=O)O
As to B6, the KD with Sortilin-6His [4] was < 100 nM. Consider GGSGGGGSGGGGSGGRQLL-OH [GGSGGGGSGGGGSGGRQLL-OH], for which, in the experiment with Sortilin-6His [5], the dissociation constant (KD) is 25 to 250 nM. On the same count and under the same terms, under REAPRWDAPLRDPALRQLL stands < 25 nM; under REAPRWDAPLRDPALFQLL, < 25 nM. Still for that read-out and setting: under REAPRWDAPLRDPALRYLL stands < 25 nM; under REAPRWDAPLRDPALRYYL, 25 to 250 nM.

Regarding REALRWDAPLRDPAPRQLL, the KD with Sortilin-6His [5] is < 25 nM. On to WSGPIGVSWGLRAAAAGFQLL-OH [WSGPIGVSWGLRAAAAGFQLL-OH], for which the equilibrium dissociation constant (KD) with Sortilin-6His [5] is < 25 nM.
